{"source": "paper PMC5809609", "target": "recombinant Myodes glareolus IFN-γ (recMgIFN-γ) (Myodes glareolus (bank vole))", "assay": "SEC; analytical gel filtration of 200 µl purified recMgIFN-γ in PBS at room temperature on a calibrated Superdex 75 10/300 GL column, flow rate 0.75 ml/min; detection at 230 and 260 nm", "data": [{"substance": "recombinant Myodes glareolus IFN-γ (recMgIFN-γ) (natural protein)", "values": [{"measurement": "stoichiometry N", "result": 2}]}]}
